This note sets out measurements from patent publication US20070293656A1, “COLLAGEN BINDING PEPTIDES” (Epix Pharmaceuticals, Inc., priority 2005, published 2007).

Bridge positions count the residues as written; N and C are the ends. Ends that are not written are not given here.

This assay concerns the target T1, human collagen type I (acid soluble, extracted from placenta, Sigma C7774) (human, UniProt P02452 162-1218; P08123 80-1119).
T1 construct: gelled and dried as a fibril film in the assay; also called dried human collagen; h-Collagen
The assay is described as follows: dried collagen assay. Here is the method:
An additional 90 μL is reserved in a HPLC glass vial as a measure of the total concentration.

T1 sequence (P02452 162-1218 limits assumed, chain 1 of 2): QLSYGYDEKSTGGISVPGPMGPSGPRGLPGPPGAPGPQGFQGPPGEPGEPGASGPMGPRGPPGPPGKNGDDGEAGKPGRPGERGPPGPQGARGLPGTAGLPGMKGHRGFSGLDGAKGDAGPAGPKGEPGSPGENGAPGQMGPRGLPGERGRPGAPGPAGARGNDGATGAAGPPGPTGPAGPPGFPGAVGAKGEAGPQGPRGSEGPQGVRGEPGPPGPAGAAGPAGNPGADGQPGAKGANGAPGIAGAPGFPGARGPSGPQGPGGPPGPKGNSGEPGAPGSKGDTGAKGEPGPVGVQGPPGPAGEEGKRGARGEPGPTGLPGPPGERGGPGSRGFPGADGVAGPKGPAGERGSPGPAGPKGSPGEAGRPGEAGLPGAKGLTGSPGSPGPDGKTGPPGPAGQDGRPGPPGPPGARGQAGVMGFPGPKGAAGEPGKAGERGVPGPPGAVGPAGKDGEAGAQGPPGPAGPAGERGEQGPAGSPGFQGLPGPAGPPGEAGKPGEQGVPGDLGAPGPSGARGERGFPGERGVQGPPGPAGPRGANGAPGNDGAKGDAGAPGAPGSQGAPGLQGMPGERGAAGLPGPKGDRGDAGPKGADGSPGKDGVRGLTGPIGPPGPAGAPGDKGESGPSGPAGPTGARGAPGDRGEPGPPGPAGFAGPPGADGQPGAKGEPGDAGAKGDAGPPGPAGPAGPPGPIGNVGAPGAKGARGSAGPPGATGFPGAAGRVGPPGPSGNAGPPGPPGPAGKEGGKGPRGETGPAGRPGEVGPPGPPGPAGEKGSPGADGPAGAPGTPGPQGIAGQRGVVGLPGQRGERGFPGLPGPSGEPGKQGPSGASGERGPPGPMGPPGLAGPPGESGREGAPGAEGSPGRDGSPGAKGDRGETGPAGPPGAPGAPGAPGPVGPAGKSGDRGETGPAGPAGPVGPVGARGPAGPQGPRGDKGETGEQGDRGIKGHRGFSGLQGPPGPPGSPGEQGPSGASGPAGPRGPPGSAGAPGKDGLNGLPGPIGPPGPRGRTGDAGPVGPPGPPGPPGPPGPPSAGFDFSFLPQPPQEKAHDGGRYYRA
T1 sequence (P08123 80-1119 limits assumed, chain 2 of 2): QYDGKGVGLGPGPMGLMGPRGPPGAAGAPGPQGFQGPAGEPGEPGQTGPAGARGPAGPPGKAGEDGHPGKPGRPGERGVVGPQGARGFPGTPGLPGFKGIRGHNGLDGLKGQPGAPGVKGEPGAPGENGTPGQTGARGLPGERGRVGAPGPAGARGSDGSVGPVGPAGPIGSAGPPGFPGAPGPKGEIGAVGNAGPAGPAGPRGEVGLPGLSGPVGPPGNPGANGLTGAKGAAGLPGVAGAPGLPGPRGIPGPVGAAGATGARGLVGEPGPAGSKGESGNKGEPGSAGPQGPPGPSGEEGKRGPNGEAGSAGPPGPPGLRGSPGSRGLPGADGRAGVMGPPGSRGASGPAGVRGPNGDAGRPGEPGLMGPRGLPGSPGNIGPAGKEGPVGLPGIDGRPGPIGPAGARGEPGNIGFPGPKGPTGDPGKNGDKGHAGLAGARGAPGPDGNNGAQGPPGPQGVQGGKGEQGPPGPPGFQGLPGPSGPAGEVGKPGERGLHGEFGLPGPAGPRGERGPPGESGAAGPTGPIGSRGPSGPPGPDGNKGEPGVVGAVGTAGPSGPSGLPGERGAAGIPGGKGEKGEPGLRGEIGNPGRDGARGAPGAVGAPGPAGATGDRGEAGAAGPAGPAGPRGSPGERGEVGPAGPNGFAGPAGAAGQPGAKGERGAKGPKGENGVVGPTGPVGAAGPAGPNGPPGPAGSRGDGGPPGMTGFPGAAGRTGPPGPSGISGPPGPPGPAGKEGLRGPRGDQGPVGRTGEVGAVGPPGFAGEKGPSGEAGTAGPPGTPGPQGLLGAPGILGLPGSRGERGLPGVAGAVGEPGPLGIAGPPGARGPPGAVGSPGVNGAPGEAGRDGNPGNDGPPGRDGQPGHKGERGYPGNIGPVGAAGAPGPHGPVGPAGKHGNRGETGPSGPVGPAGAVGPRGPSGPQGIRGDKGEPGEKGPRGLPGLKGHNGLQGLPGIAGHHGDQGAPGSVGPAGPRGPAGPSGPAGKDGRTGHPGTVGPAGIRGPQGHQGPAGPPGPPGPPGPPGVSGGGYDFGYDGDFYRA

Consider IWLCTGGAATWNCKFD (disulfide 4-13 (inferred)) [SEQ ID NO: 25], for which the “% bound” value stood at 39%.
Under SWHCFGDNENWMCNLR (disulfide 4-13 (inferred)) [SEQ ID NO: 27] stands 24%; under NWVCSGDHADWSCALI (disulfide 4-13 (inferred)) [SEQ ID NO: 32], 12%.
Under GWNCYEYDSQWICDHL (disulfide 4-13 (inferred)) [SEQ ID NO: 44] stands 28%; under DWECHGNEFEWNCLMR (disulfide 4-13 (inferred)) [SEQ ID NO: 22], 55%.
Under PWYCSGDHLDWKCIYQ (disulfide 4-13 (inferred)) [SEQ ID NO: 20] stands 64%.
With LTVCHPPYYGRCNFV (disulfide 4-12 (inferred)) [SEQ ID NO: 10], the “% bound” value was 9%.
In the case of DWTCVGDHKTWKCNFH (disulfide 4-13 (inferred)) [SEQ ID NO: 21], the “% bound” value was 57%.
Take NWKCWGVVKWECIWA (disulfide 4-12 (inferred)) [SEQ ID NO: 5]: the “% bound” value was found to be 24%.
Under WRCDGDAHDWHCDWF (disulfide 3-12 (inferred)) [SEQ ID NO: 26] stands 25%; under MWDCTGNSAEWRCEMQ (disulfide 4-13 (inferred)) [SEQ ID NO: 34], 11%; under FWTCMRDQVGEWHCGTE (disulfide 4-14 (inferred)) [SEQ ID NO: 88], 1%.
In the case of AWTCVGGEKTWGCVWN (disulfide 4-13 (inferred)) [SEQ ID NO: 33] it was 12%; in that of TWNCYGVTEWHCYMI (disulfide 4-12 (inferred)) [SEQ ID NO: 9], 7%; in that of WWTCHMTWSGQWDSCKWH (disulfide 4-15 (inferred)) [SEQ ID NO: 101], 56%.
Under PMICHAPYVGKCNFL (disulfide 4-12 (inferred)) [SEQ ID NO: 12] stands 7%.
VWACRGGTTNWHCDL (disulfide 4-13 (inferred)) [SEQ ID NO: 41]: the “% bound” value is 1%.
In the case of AWSCWIVEGRWNCSDI (disulfide 4-13 (inferred)) [SEQ ID NO: 48] it was 22%; in that of DWTCSGDEYTWHCNYE (disulfide 4-13 (inferred)) [SEQ ID NO: 17], 78%; in that of DWTCSGDEYRWHCNYE (disulfide 4-13 (inferred)) [SEQ ID NO: 19], 70%.
Under DWTCYGDEYTWHCNYE (disulfide 4-13 (inferred)) [SEQ ID NO: 15] stands 83%; under DWTCSGDEYTWYCNYE (disulfide 4-13 (inferred)) [SEQ ID NO: 18], 78%.
Under DWTCRGDEYTWHCNYE (disulfide 4-13 (inferred)) [SEQ ID NO: 14] stands 83%; under DWTCSGDEYYWHCNYE (disulfide 4-13 (inferred)) [SEQ ID NO: 16], 83%.
For NWYCTGTKSWECFWK (disulfide 4-12 (inferred)) [SEQ ID NO: 7], the “% bound” value was found to be 11%.
Under EWRCRGDSSSWLCDYT (disulfide 4-13 (inferred)) [SEQ ID NO: 40] stands 3%; under PWQCYSDKTSWVCNLY (disulfide 4-13 (inferred)) [SEQ ID NO: 43], 30%; under WWGCRQGTGEHWSHCMWF (disulfide 4-15 (inferred)) [SEQ ID NO: 100], 67%.
In the case of GWDCQGTDNIWECVRK (disulfide 4-13 (inferred)) [SEQ ID NO: 30], the “% bound” value worked out at 16%.
In the case of TWRCDQFKGKWVCRGG (disulfide 4-13 (inferred)) [SEQ ID NO: 42] it was 40%; in that of WTDCQWMDEQLWTCRWD (disulfide 4-14 (inferred)) [SEQ ID NO: 94], 21%.
Under WTDCQWMDEQIWTCRWD (disulfide 4-14 (inferred)) [SEQ ID NO: 95] stands 5%.
In the case of GWVCGGDHTTWECHLQ (disulfide 4-13 (inferred)) [SEQ ID NO: 31] it was 15%; in that of AKKCWYNDGGHLRCRTL (disulfide 4-14 (inferred)) [SEQ ID NO: 99], 3%; in that of YWVCGGDHQSWHCSHP (disulfide 4-13 (inferred)) [SEQ ID NO: 35], 8%.
As to KWHCELDSHMEWSCSGH (disulfide 4-14 (inferred)) [SEQ ID NO: 89], the “% bound” value was found to be 1%.
Under PWTCRMTENTWVCDLN (disulfide 4-13 (inferred)) [SEQ ID NO: 47] stands 22%; under AWDCSGNIPTWYCRRL (disulfide 4-13 (inferred)) [SEQ ID NO: 23], 44%.
In the case of GWVCLQKGPKWVCDWD (disulfide 4-13 (inferred)) [SEQ ID NO: 46] it was 23%.
Under DWICHGDFDTWKCDLQ (disulfide 4-13 (inferred)) [SEQ ID NO: 29] stands 16%; under TWMCVDPPLWRCWVQ (disulfide 4-12 (inferred)) [SEQ ID NO: 4], 45%; under YPACDDQTHLWNLACWPA (disulfide 4-15 (inferred)) [SEQ ID NO: 103], 2%.
Consider TWQCSGNQKWSCEWF (disulfide 4-12 (inferred)) [SEQ ID NO: 6], for which the “% bound” value is 20%.
For the molecule WWACQKGQHDWEKCHWL (disulfide 4-14 (inferred)) [SEQ ID NO: 93], the “% bound” value came to 5%.
In the case of PLVCHPPYSGSCSLH (disulfide 4-12 (inferred)) [SEQ ID NO: 11] it was 9%.
Under WAYCMTDPSGKYRYCQNW (disulfide 4-15 (inferred)) [SEQ ID NO: 102] stands 31%; under EWLCVGDSLKWYCKHS (disulfide 4-13 (inferred)) [SEQ ID NO: 24], 43%; under TWACGWTTTGWDNCRWI (disulfide 4-14 (inferred)) [SEQ ID NO: 90], 34%.
In the case of SWICTGDNIDWNCRFA (disulfide 4-13 (inferred)) [SEQ ID NO: 28], the “% bound” value turned out to be 20%.
In the case of TWACGWTTTGWDNCRWI (disulfide 4-14 (inferred)) [SEQ ID NO: 92] it was 34%; in that of WQLCSSRNDHVAYCFVS (disulfide 4-14 (inferred)) [SEQ ID NO: 96], 17%.
As to WISCESSEEKISYCWRA (disulfide 4-14 (inferred)) [SEQ ID NO: 97], the “% bound” value worked out at 13%.
With EWQCTQYANQWNCKYN (disulfide 4-13 (inferred)) [SEQ ID NO: 45], the “% bound” value turned out to be 25%.
